# Publication PMC7934871 (JCI Insight, 2021)
# What was measured:
# [1] = test system: HCT116 xenograft tumors; experiment: HCT116 xenograft in NSG mice, peritumoral treatment; type: in vivo, mouse; details: HCT116 s.c. in NSG mice, 1 mg/kg peritumoral every day, n = 4
# Experimental: Mouse care and experimental procedures were performed under pathogen-free conditions in accordance with established institutional guidance and approved IACUC protocols from Research Animal Care Committee of the City of Hope. For s.c. tumor challenge, 5 × 10^6 HCT116 cells were injected into NSG mice from The Jackson Laboratory or animal resource core facility at the City of Hope. After tumors reached an average size of 80~100 mm^3, mice were locally or intravenously treated with 1 mg/kg of PO- or PS-peptides (Anaspec) every day or every other day. Control animals were treated with the equal volume of HBSS (Invitrogen, Thermo Fisher Scientific). Tumor growth was measured by a digital caliper every other day. […] Lungs were then analyzed for immune responses by immunostaining followed by confocal imaging. […] Tumor growth was measured by a digital caliper every other day. […]
# (B) PS-acet.-STAT3 peptide downregulates STAT3 phosphorylation, assessed by Western blotting using tumor homogenates prepared from tumors shown in A.
# (C) mRNA levels for CASP9, BIRC5 and BCL2L1 in the same tumor tissues described above were assessed by qRT-PCR. […]
# (D) Treatments with PS-acet.-STAT3 peptide induced cell death, indicated by H&E staining (upper panel). […] Right panels represent quantification of Ki-67 protein levels and mean of vessel diameter (data include 5 fields of view per group). […]
# [2] = Systemic toxicity in mice; type: in vivo; details: 1 mg/kg i.v. every other day for 3 weeks, n = 3
# Experimental: To evaluate the potential toxicity associated with systemic treatments of PS-peptide, PS-acet.-STAT3 peptide, PS-oligo, naive peptide, and PO- or PS-acet.-STAT3 peptide were given to the mice at 1 mg/kg through i.v. every other day for 3 weeks.
# Supplemental Figure 10 (related to Figure 3). The systemic toxicity of PS-acet.-peptide.
# The bodyweight (A), blood count (B) and organ morphology (H&E staining; spleen, kidney and liver) (C) of the mice (n=3) treated with HBSS (1), PS-oligo (2), naïve peptide (3), PO-peptide (4) or PS-peptide (5) every other day at 1 mg/kg (per treatment) for 3 weeks.
# Individual value of each mouse is shown as a dot on the graph. The red lines on each graph in (B) indicate the normal ranges. Blood count was done by a veterinary hematology analyzer. The images shown in (C) are the represented H&E section from three mice (n=3). Enlarged view are shown below as indicated. Scale bar, 50 µm.
# Aftabizadeh and Li et al., Figure S10
substance,measurement,setting,value
PDIPKEEAFGK685(Ac)YCRPESQEHPC-linker-T*C*C*A*T*G*A*G*C*T*T*C*C*T*G*A*T*G*C*T [PS-acet.-STAT3 peptide],tumor growth,[1],antitumor effects
same,"behavior, body weight, blood counts",[2],"No behavior changes, body weight loss, or abnormal blood counts"
same,"morphology and cell death in liver, spleen, kidney tissues (H&E)",[2],no significant morphology change or cell death
